Target: C-terminal FLAG-tag TEX264 (UniProt Q9Y6I9)
Assay: co-IP; FLAG co-IP of FLAG-tagged ER-phagy receptor from HEK293 Tg-NLuc cells in TNI buffer (50 mM Tris pH 7.5, 150 mM NaCl, 0.5% IGEPAL CA-630), four washes; Tg-NLuc on the resin read by nano-glo luciferase assay; against GFP control

Sequence of UniProt Q9Y6I9 (Q9Y6I9 whole entry): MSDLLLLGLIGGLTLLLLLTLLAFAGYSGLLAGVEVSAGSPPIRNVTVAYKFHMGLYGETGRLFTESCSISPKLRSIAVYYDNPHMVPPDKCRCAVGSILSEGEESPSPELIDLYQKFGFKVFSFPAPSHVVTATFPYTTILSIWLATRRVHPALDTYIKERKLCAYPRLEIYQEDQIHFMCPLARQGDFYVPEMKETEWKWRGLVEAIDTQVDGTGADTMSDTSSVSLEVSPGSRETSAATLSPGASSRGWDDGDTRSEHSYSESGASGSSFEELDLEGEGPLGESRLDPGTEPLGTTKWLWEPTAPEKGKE

## nanoluciferase-tagged thyroglobulin C1264R (C1264R Tg-NLuc), P01266 20-2768
  fold interaction against A2234D Tg: 2 fold
  fold interaction against WT Tg: 3 fold

— publication PMC11369088
